Experimental data published in patent publication US9549967B2, “Regulation of sodium channels by PLUNC proteins” (The University of North Carolina at Chapel Hill, priority 2009, dated 2017).

Columns and labels:
[1] = tested on: human bronchial epithelial cultures; test: Airway surface liquid height by confocal microscopy in human bronchial epithelial cultures; assay type: cell-based; conditions: SPLUNC1 knockdown cultures; 50 ng/ml rSPLUNC1 added to airway surface liquid
Source text: shRNA-induced knockdown of SPLUNC1: Our strategy was to select shRNA sequences from Dharmacon that targeted SPLUNC1 effectively by using transient siRNA in an immortalized human airway epithelial cell line (denoted AALEB) (Lundberg et al., Oncogene 21:4577 (2002)). […] Passage-1 airway cells surviving one week of selection were then trypsinized and plated down on 12 mm T-clear inserts and differentiated under air liquid interface conditions. At the time of the functional assays, we measured airway surface liquid SPLUNC1 protein levels by Western blot to verify stable knockdown. An anti-luciferase shRNA-expressing adenovirus was infected separately as a control.
Confocal microscopy: To label airway surface liquid, Ringer containing Texas Red-dextran (2 mg/ml; Invitrogen) was added to human bronchial epithelial culture mucosal surfaces. Perfluorocarbon was added mucosally to prevent evaporation of the airway surface liquid and the culture placed in a chamber containing 100 μl Ringer on the stage of a Leica SP5 confocal microscope with a 63× glycerol immersion objective. 5 points per culture were scanned and an average airway surface liquid height determined. For confocal microscopy human bronchial epithelial cultures were bathed serosally in a modified Ringer solution containing (mM): 116 NaCl, 10 NaHCO3, 5.1 KCl, 1.2 CaCl2, 1.2 MgCl2, 20 TES, 10 glucose, pH 7.4). […]

[2] = biological target: T1, αR205,231Kβ, γR138K ENaC mutant (Rattus norvegicus, UniProt P37089+P37090+P37091, R138K/R205K/R231K); test: Oocyte current of furin-insensitive ENaC mutant; assay type: cell-based; conditions: co-expression in oocytes
T1 construct: expressed in transfected cells; host or cells: Xenopus laevis oocytes
T1 sequence (P37089 1-698 R205K/R231K): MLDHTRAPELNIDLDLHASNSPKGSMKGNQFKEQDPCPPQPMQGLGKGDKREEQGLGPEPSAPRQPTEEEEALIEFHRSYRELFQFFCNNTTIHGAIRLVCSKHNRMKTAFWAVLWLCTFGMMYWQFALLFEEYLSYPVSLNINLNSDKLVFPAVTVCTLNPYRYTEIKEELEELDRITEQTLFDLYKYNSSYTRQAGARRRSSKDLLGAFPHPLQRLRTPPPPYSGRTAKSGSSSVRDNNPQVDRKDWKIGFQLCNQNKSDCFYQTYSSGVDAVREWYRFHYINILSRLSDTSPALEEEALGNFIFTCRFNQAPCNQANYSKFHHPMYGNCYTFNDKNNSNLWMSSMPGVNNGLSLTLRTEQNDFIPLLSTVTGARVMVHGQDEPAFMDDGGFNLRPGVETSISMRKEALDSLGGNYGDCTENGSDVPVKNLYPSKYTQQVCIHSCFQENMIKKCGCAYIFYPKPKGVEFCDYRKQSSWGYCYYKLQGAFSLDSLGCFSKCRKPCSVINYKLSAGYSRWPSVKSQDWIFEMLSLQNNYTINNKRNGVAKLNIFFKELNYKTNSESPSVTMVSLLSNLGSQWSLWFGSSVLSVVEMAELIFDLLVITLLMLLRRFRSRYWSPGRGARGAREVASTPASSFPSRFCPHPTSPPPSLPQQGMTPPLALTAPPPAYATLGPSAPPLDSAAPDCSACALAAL
T1 sequence (P37090 1-638): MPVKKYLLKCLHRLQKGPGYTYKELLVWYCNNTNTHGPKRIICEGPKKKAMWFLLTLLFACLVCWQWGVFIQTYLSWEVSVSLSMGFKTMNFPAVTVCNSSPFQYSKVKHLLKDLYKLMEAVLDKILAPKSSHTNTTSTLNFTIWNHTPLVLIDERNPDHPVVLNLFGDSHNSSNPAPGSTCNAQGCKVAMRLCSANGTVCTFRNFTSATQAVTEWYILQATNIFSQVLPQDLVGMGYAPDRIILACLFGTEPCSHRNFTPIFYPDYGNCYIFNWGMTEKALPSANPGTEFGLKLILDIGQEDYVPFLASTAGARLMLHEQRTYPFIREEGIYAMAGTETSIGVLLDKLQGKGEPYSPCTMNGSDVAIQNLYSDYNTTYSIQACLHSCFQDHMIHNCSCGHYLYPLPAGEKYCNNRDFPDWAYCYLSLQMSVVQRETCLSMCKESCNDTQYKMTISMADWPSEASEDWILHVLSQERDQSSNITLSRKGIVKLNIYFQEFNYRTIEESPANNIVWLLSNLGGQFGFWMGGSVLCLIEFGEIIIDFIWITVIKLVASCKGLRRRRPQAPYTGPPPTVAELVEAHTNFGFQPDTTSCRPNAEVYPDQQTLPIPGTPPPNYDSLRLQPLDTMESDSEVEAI
T1 sequence (P37091 1-650 R138K): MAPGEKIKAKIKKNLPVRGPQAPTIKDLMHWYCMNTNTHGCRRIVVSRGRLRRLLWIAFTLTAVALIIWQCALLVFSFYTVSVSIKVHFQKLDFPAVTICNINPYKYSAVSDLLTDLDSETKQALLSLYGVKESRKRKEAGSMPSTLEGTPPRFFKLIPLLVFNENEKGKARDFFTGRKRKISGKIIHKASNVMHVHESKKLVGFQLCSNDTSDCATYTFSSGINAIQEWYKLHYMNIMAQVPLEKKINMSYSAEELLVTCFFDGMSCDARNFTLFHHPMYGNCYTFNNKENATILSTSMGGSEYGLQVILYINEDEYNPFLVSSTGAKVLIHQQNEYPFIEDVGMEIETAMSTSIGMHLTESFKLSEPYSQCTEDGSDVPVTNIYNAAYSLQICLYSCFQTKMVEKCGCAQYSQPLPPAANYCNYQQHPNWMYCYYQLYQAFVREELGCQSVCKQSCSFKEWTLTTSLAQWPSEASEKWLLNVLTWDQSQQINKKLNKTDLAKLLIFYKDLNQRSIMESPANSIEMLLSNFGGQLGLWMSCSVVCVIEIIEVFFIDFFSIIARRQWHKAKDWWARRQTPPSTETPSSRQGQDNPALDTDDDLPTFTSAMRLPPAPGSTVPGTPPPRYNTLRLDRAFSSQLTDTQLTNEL
Procedure: Oocyte studies. Xenopus laevis oocytes were harvested and injected as described (Donaldson, et al., J. Biol. Chem. 277:8338 (2002)). Defolliculated healthy stage V-VI oocytes were injected with 0.3 ng of cRNA of each ENaC subunit. Injected oocytes were kept in modified Barth's saline (in mM: 88 NaCl, 1 KCl, 2.4 NaHCO3, 0.3 Ca(NO3)2, 0.41 CaCl2, 0.82 MgSO4, and 15 HEPES, adjusted to pH 7.35 with Tris). Oocytes were studied 24 hr after injection using the two electrode voltage clamp technique as previously described (Donaldson, et al., J. Biol. Chem. 277:8338 (2002)). Oocytes were clamped at a holding potential of […]. The change in amiloride-sensitive whole cell current as an indicator of ENaC activity was determined by subtracting the corresponding current value measured in the presence of 10 μM amiloride from that measured before the application of amiloride.

B1: SPLUNC1: human SPLUNC1, 256 amino acid secreted PLUNC protein (SEQ ID NO:1); rSPLUNC1 = V5/6His-tagged protein purified from HEK293 media (protein, listed as Homo sapiens)
chain: MFQTGGLIVFYGLLAQTMAQFGGLPVPLDQTLPLNVNPALPLSPTGLAGSLTNALSNGLLSGGLLGILENLPLLDILKPGGGTSGGLLGGLLGKVTSVIPGLNNIIDIKVTDPQLLELGLVQSPDGHRLYVTIPLGIKLQVNTPLVGASLLRLAVKLDITAEILAVRDKQERIHLVLGDCTHSPGSLQISLLDGLGPLPIQGLLDSLTGILNKVLPELVQGNVCPLVNEVLRGLDITLVHDIVNMLIHGLQFVIKV
modifications: V5/6His tag
notes: rSPLUNC1 = V5/6His-tagged protein purified from HEK293 media
regulation of airway surface liquid height [1]: restored | inhibition of furin-insensitive ENaC mutant [2]: inhibited
